Laboratory results: the supplement of paper PMC9876800

Tested on: peptide library, one residue held at a place counted from the S/T acceptor
Assay: relative phosphorylation of the sub-library (ratio to the mean residue at this position); higher = residue favoured
Settings: human
Method in brief: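 Purified recombinant kinases (human or orthologue constructs) were incubated in 384-well plates with biotinylated degenerate peptide sub-libraries, each fixing one residue at one position around a central Ser/Thr. Peptides were at 50 μM, with 50 μM ATP spiked with γ-32P-ATP, for 90 min under kinase-specific conditions. Spots on streptavidin membranes were phosphorimaged and quantified by densitometry. Relative sub-library phosphorylation is a ratio to the mean residue at that position.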

Sequence of AKT1, construct: aa109-end (P31749 109-480, looked up): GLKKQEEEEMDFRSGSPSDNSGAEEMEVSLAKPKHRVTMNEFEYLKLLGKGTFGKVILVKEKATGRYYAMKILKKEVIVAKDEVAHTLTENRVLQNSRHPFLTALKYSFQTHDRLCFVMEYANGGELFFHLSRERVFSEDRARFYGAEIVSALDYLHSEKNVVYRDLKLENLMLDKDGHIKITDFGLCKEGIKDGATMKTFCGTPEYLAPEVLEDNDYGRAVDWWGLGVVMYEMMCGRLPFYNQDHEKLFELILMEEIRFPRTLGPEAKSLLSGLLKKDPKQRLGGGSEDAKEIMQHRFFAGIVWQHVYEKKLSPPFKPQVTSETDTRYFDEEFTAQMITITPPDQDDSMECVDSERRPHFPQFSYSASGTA
Sequence of ROCK2, construct: aa5-554 (O75116 5-554, looked up): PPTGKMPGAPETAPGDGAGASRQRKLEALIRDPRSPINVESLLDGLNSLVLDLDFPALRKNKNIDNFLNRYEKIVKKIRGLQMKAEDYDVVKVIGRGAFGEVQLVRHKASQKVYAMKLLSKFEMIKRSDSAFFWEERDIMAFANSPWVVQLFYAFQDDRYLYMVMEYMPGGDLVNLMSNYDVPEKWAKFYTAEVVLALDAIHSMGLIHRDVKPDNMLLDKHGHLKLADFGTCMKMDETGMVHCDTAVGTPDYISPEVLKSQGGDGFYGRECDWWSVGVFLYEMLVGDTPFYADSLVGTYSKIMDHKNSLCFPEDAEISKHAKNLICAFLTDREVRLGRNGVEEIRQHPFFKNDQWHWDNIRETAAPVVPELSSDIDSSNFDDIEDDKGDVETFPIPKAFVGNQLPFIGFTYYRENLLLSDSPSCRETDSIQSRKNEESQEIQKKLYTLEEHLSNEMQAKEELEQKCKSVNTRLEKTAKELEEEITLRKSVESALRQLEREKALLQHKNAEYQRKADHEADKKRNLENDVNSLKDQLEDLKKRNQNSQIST

ROCK2, construct: aa5-554 (from UniProt O75116)
relative phosphorylation
Settings | at +1 | at +2 | at +3 | at +4 | at -1 | at -2 | at -3 | at -4 | at -5
A fixed | 0.695 | 1.01 | 0.926 | 0.921 | 0.75 | 0.607 | 0.647 | 0.938 | 1
D fixed | 0.471 | 0.48 | 0.757 | 0.745 | 0.406 | 0.263 | 0.297 | 0.58 | 0.562
E fixed | 0.455 | 0.51 | 0.614 | 0.751 | 0.301 | 0.251 | 0.28 | 0.613 | 0.471
F fixed | 0.69 | 0.707 | 0.962 | 1.1 | 0.559 | 0.474 | 0.341 | 0.622 | 0.679
G fixed | 0.957 | 0.876 | 1.73 | 1.31 | 1.08 | 0.706 | 0.724 | 1.22 | 1.19
H fixed | 0.984 | 1.16 | 1.25 | 1.1 | 1.16 | 1.42 | 1.59 | 1.13 | 1.25
I fixed | 1.49 | 1.29 | 0.948 | 0.984 | 0.482 | 0.3 | 0.281 | 0.516 | 0.692
K fixed | 1.19 | 1.44 | 0.998 | 1.2 | 2.77 | 2.71 | 2.57 | 2.3 | 2.45
L fixed | 1.48 | 1.08 | 0.952 | 0.886 | 0.912 | 0.391 | 0.304 | 0.504 | 0.494
M fixed | 1.52 | 0.743 | 0.876 | 0.929 | 0.792 | 0.446 | 0.361 | 0.707 | 0.571
N fixed | 1.43 | 0.734 | 0.931 | 1.04 | 1.15 | 0.937 | 0.637 | 0.836 | 0.779
P fixed | 0.266 | 0.935 | 1.28 | 1.29 | 1.28 | 0.665 | 0.785 | 1.19 | 1.04
Q fixed | 1.51 | 0.75 | 0.835 | 0.946 | 1.09 | 0.801 | 0.651 | 0.904 | 0.865
R fixed | 1.77 | 1.81 | 0.97 | 1.07 | 2.2 | 5.27 | 6.24 | 2.89 | 2.83
V fixed | 0.908 | 1.48 | 0.835 | 0.727 | 0.619 | 0.321 | 0.297 | 0.555 | 0.641
W fixed | 0.616 | 0.922 | 1.08 | 1.09 | 0.528 | 0.762 | 0.53 | 0.822 | 0.736
Y fixed | 0.564 | 1.07 | 1.06 | 0.914 | 0.929 | 0.681 | 0.461 | 0.673 | 0.758
pThr fixed | 0.595 | 0.566 | 0.556 | 0.763 | 0.336 | 0.465 | 0.494 | 0.755 | 0.805
pTyr fixed | 0.409 | 0.592 | 0.736 | 0.663 | 0.386 | 0.338 | 0.435 | 0.489 | 0.705

AKT1, construct: aa109-end (from UniProt P31749)
relative phosphorylation
Settings | at +1 | at +2 | at +3 | at +4 | at -1 | at -2 | at -3 | at -4 | at -5
A fixed | 0.492 | 0.908 | 0.834 | 0.83 | 0.739 | 0.942 | 0.543 | 0.894 | 0.938
D fixed | 0.294 | 0.547 | 0.499 | 0.752 | 0.726 | 0.143 | 0.165 | 0.567 | 0.639
E fixed | 0.292 | 0.394 | 0.537 | 0.53 | 0.387 | 0.132 | 0.164 | 0.703 | 0.639
F fixed | 2.31 | 0.76 | 1.03 | 0.662 | 0.832 | 0.504 | 0.271 | 0.734 | 0.929
G fixed | 0.657 | 1.07 | 1.21 | 1.01 | 1.32 | 0.592 | 0.453 | 1.03 | 1.01
H fixed | 0.791 | 1.56 | 1.3 | 1.13 | 1.18 | 0.839 | 0.837 | 1.02 | 1.11
I fixed | 1.7 | 1.02 | 0.838 | 0.646 | 0.337 | 0.414 | 0.245 | 0.66 | 0.74
K fixed | 0.854 | 1.3 | 1.56 | 1.95 | 1.78 | 2.18 | 2.33 | 1.85 | 1.61
L fixed | 1.22 | 1.13 | 0.826 | 0.786 | 0.978 | 1.02 | 0.295 | 0.75 | 0.789
M fixed | 1.69 | 0.787 | 0.839 | 0.773 | 1.13 | 0.498 | 0.282 | 0.9 | 0.859
N fixed | 0.924 | 1.08 | 1.06 | 1.1 | 1.44 | 0.444 | 0.332 | 0.804 | 0.795
P fixed | 0.36 | 0.733 | 0.833 | 1.57 | 1.04 | 0.303 | 0.507 | 0.91 | 1.03
Q fixed | 1.08 | 0.903 | 0.964 | 1.25 | 1.01 | 0.546 | 0.56 | 0.91 | 0.835
R fixed | 0.952 | 1.95 | 1.94 | 1.84 | 1.75 | 7.28 | 9.07 | 2.75 | 2.58
V fixed | 1.4 | 1.11 | 0.782 | 0.702 | 0.449 | 0.44 | 0.238 | 0.757 | 0.727
W fixed | 1.12 | 0.831 | 0.963 | 0.884 | 0.663 | 0.332 | 0.352 | 0.972 | 0.893
Y fixed | 0.853 | 0.913 | 0.979 | 0.593 | 1.24 | 0.392 | 0.355 | 0.785 | 0.877
pThr fixed | 0.455 | 0.493 | 0.573 | 0.668 | 0.301 | 0.348 | 0.322 | 0.767 | 0.724
pTyr fixed | 0.575 | 0.645 | 0.577 | 0.447 | 0.9 | 0.273 | 0.299 | 0.692 | 0.728
